The record followed here is patent US20230250176A1 (DRAGONFLY THERAPEUTICS, published 2023).

As a reminder, the EC50 is the concentration giving half of the maximal effect. Read a low EC50 as greater potency.

Experiment [1] deals with T1, human NKG2D on cells (human, UniProt P26718 1-216).
T1 construct: whole, on cells; also called NKG2D on KHYG-1 parental cells; NKG2D on CD8+ T cells and NK cells
T1 sequence (looked up): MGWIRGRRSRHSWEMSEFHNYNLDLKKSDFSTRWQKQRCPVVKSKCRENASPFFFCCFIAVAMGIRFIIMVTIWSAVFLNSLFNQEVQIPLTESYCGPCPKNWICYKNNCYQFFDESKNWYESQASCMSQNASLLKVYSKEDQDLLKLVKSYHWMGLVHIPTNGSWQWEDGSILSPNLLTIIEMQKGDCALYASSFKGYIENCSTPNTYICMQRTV
Kind of experiment: flow cytometry, AF647-conjugated test article on KHYG-1 parental cells (NKG2D+, CD16a-). A general note: A flow cytometer gives signals particle by particle.

Experiment [2] addresses purified recombinant rat EGFR (rat, UniProt A0ABK0LZB0 35-651). Kind of experiment: SPR (Biacore 8K), 37 C.
Description: (§1) Measurements were performed at physiological temperature of 37° C. using a Biacore8K SPR system.
In experiment [3] the target is purified recombinant mouse EGFR (mouse, UniProt Q01279 25-647, limits assumed). The experiment can be described thus: SPR (Biacore 8K), 37 C. A general note: Surface plasmon resonance follows binding to a sensor surface in real time, without labels.
Description: as §1
Experiment [4] deals with T2, mouse Tyrp1 on B16F10 and CT26-Tyrp1 cells (mouse, UniProt P07147 25-537).
T2 construct: whole, on cells
The experiment can be described thus: flow cytometry on CT26-Tyrp1 cells, anti-mouse IgG-Fc secondary, MFI minus background, 4-parameter fit.

Experiment [5] concerns the target T2, mouse Tyrp1 on B16F10 and CT26-Tyrp1 …. The experiment can be described thus: flow cytometry on B16F10 cells, anti-mouse IgG-Fc secondary, MFI minus background, 4-parameter fit.

B1: panitumumab (antibody, IgG2, V domains shown)
VH: QVQLQESGPGLVKPSETLSLTCTVSGGSVSSGDYYWTWIRQSPGKGLEWIGHIYYSGNTNYNPSLKSRLTISIDTSKTQFSLKLSSVTAADTAIYYCVRDRVTGAFDIWGQGTMVTVSS
VL: DIQMTQSPSSLSASVGDRVTITCQASQDISNYLNWYQQKPGKAPKLLIYDASNLETGVPSRFSGSGSGTDFTFTISSLQPEDIATYFCQHFDHLPLAFGGGTKVEIK
Turning to B1, the values for the binding result in experiment [1], in experiment [2] and in experiment [3] were “no binding (tested: 800 nM)”, “no binding” and “no binding”, respectively.

B2: TA99 (antibody, V domains shown)
VH: EVQLQQSGAELVRPGALVKLSCKTSGFNIKDYFLHWVRQRPDQGLEWIGWINPDNGNTVYDPKFQGTASLTADTSSNTVYLQLSGLTSEDTAVYFCTRRDYTYEKAALDYWGQGASVIVSS
VL: DIQMSQSPASLSASVGETVTITCRASGNIYNYLAWYQQKQGKSPHLLVYDAKTLADGVPSRFSGSGSGTQYSLKISSLQTEDSGNYYCQHFWSLPFTFGSGTKLEIK
For the molecule B2, the EC50 came to 14.6 nM in experiment [4] and 11 nM in experiment [5].
